Percent inhibition of specific binding after protease pretreatment of the cells data for one substance are collected here from US20020193327A1.

The target in the assay is protein receptor on Chang C cells (human). Nature of the assay: 125I-labeled virions on Chang C cells pretreated with 10 µg/ml trypsin, subtilisin, proteinase K or bromelain.

Consider “Wild-type Ad37 (adenovirus type 37) particles”, for which the percent inhibition of specific binding after protease pretreatment of the cells came to 50%.
